{"source": "paper doi:10.1101/2021.12.28.474374", "about": "(bioRxiv, 2021)", "target": "T1, Ctc1 OB-A (residues 1-183) (Tetrahymena, UniProt A0PGB2 1-183)", "T1 sequence (looked up)": "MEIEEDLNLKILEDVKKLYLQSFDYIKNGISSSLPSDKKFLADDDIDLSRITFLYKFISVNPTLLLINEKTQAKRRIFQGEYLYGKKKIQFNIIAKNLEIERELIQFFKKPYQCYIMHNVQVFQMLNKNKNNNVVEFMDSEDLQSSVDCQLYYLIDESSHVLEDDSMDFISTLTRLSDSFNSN", "assay": "NMR titration", "data": [{"binder": "CQQDDFGDGCLLQIVNYTHQSLK (peptide, UniProt D2CVN8 228-250, looked up)", "note": "[p50 peptide (residues 228-250)]", "values": [{"measurement": "stoichiometry N", "value": 1}]}]}
